Substrate in this series: CCCCCCCCCCCC(=O)O
Nature of the series: initial rates of substrate consumption by GC, Hill fit. Type of series: biochemical, Alicyclobacillus acidocaldarius. Conditions: excess H2O2, pH 7.4, 28 °C, Hill n 2.1 ± 0.8. From the text: initial rates of substrate consumption by GC, Hill fit on CYP-Aa162

B1: CYP-Aa162 (Alicyclobacillus acidocaldarius LAA1) (protein)
chain: MNQCIPRDRTFDSSLALIKEGYLFIKNRVDQYQSDIFEARLLLENVVCMHGAEAAKLFYNTELFQRQGALPKRVQKTLFGENAIQTLDGTAHLHRKQLFLSLLTPDQEKSLATLATTQWRECAKVWENADRVVLFEEAKRMLCRIACQWTGVPLDESEVSKRADDFGAMVDAFGAVGPRHWKGRRARARAEAWLRQMIDEIRIGLRSVDEHTPLHVVAFWRDVNGNLLDAQMVAIELINLLRPIVAISTFITFSALALHEHPTWRDRLKARNEADIEMFVQEVRRYYPFAPFLGARVKKDFVWRGYEFKRGTLVLLDVYGTHHDARLWDSPNEFRPERFMRKTVGPFDLIPQGGGDSHTGHRCPGEGATIEIMKASVDFLVNQIDFEVPAQDLSYRLDVMPTLPKSGFVLTHVHRKFIASPTIATPNGSEALPSEV
For orientation: kcat means the maximal rate divided by the concentration of active sites. For orientation: kcat/Km means the second-order rate constant that governs catalysis at low substrate concentration. Regarding B1, the K0.5 was 93.1 ± 37.7 µM, the kcat came to 0.768 ± 0.285 s⁻¹ and the kcat/Km came out at 8330 M⁻¹ s⁻¹.

The values are drawn from PMC5588734, “In vitro oxidative decarboxylation of free fatty acids to terminal alkenes by two new P450 peroxygenases” (Biotechnology for Biofuels, 2017).
